Test results as given in patent US20100260668A1 (published 2010).
“And” between values parts separate entries of the source, which are not always exact repeats. Identical values can stand only once. Blank lines part the entries; values can stand above or below the binder they belong to.

Legend:
[1] = molecular target: T1, recombinant human HGF (human, UniProt P14210 32-728); assay: competition ELISA: antibody co-incubated with 2 nM soluble c-Met Fc on coated HGF (competitor c-Met Fc)
T1 construct: The target there is entered as this HGF; also called hepatocyte growth factor
T1 sequence (P14210 32-728 limits assumed): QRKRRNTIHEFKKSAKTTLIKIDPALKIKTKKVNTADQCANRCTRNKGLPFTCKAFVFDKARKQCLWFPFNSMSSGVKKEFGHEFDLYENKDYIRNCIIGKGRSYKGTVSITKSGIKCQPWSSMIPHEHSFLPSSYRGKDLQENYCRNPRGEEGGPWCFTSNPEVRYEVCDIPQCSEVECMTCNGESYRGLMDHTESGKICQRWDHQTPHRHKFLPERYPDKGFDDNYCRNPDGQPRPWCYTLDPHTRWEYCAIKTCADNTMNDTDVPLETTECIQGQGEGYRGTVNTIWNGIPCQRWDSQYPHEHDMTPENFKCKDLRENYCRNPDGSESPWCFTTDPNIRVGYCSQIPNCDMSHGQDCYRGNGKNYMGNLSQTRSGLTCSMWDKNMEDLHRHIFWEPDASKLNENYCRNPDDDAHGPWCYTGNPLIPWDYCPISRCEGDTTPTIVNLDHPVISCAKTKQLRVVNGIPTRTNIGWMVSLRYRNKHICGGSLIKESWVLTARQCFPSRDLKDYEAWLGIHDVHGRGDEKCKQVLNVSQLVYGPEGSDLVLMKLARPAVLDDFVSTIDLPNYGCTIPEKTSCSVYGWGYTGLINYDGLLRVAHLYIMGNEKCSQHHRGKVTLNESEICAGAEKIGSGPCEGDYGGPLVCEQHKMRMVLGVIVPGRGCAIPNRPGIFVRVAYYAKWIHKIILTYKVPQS

[2] = molecular target: T2, PlGF (Placental GF) (UniProt P49763-2 21-149, limits assumed); assay: Direct Bind ELISA, antigen on plate
T2 construct: Bought reagent
T2 sequence (looked up): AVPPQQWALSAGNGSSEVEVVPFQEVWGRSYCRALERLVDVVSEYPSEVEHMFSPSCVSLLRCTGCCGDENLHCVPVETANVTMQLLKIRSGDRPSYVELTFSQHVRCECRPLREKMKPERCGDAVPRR

[3] = molecular target: T3, placental growth factor (PLGF) (UniProt P49763-2 21-149, limits assumed); assay: ligand-receptor binding competition assay, PlGF binding to VEGFR1
T3 construct: also called P1GF
T3 sequence (looked up): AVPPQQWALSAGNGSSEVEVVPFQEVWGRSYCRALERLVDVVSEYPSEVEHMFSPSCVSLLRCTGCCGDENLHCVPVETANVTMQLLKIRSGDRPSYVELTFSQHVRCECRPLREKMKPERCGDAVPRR

[4] = molecular target: T4, CD-19 (human, UniProt P15391 20-556); assay: flow cytometry on cells carrying the target, 2 ug/mL; N-terminal VD
T4 construct: whole, on cells
T4 sequence (looked up): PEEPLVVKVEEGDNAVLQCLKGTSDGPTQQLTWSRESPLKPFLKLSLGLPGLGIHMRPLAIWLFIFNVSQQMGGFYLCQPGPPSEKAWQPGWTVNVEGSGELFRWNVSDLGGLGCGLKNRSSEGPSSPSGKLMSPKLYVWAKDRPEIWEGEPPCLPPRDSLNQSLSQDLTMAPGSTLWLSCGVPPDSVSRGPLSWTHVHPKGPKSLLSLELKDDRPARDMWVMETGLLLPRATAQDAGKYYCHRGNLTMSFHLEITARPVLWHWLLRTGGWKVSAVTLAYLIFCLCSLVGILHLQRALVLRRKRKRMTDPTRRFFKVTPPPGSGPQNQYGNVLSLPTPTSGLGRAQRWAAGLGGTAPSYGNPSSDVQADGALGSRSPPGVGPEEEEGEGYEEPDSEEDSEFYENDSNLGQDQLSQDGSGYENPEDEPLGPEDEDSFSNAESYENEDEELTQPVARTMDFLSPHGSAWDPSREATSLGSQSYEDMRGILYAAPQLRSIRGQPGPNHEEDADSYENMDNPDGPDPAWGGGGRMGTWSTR

[5] = molecular target: T5, human DLL4 on 293G-human DLL4 cells (human, UniProt Q9NR61 27-685); assay: FACS: inhibition of Notch1 binding to 293G-human DLL4 cells (competitor Notch1)
T5 construct: whole, on cells; no method paragraph describes this FACS assay

[6] = molecular target: T6, human DLL4 extracellular domain (human, UniProt Q9NR61 27-529, biotin label in the Notch-1 competition ELISA (sites not given)); assay: cell-based or functional assay
[7] = molecular target: T6, human DLL4 extracellular domain; assay: competition ELISA: 14 nM biotin-labelled human DLL4 ECD pre-mixed with antibody, then on coated human Notch-1 (competitor Notch-1)
[8] = molecular target: T6, human DLL4 extracellular domain; assay: competition ELISA: biotin-labelled human DLL4 ECD pre-mixed with antibody, then on coated human Notch-1 (competitor Notch-1)
[9] = molecular target: T7, NRP1 (Neuropilin-1 Npn-1-His tag) (UniProt O14786-2 22-644); assay: Direct Bind ELISA, antigen on plate; N-terminal VD
T7 construct: Bought reagent

[10] = molecular target: T8, recombinant His-RON partial ECD (R&D Systems #1947-MS) (UniProt Q04912 25-957, limits assumed); assay: competition ELISA: DVD-Ig pre-incubated with 10 nM His-RON partial ECD, then on captured MSP1 (competitor MSP1)
T8 construct: extracellular domain; also called MSP Receptor ECD-His tag; not shown: His tag

[11] = molecular target: T7, NRP1 (Neuropilin-1 Npn-1-His tag); assay: Direct Bind ELISA, antigen on plate
[12] = molecular target: T7, NRP1 (Neuropilin-1 Npn-1-His tag); assay: Direct Bind ELISA, antigen on plate; C-terminal VD
[13] = molecular target: T9, CD40/FC (CD40 ECD/FC chimera-His tag) (UniProt P25942 21-193); assay: Direct Bind ELISA, C-terminal variable domain
T9 construct: extracellular domain; bought reagent; not shown: IgG FC domain and His tag of the bought chimera
T9 sequence (P25942 21-193, change not shown): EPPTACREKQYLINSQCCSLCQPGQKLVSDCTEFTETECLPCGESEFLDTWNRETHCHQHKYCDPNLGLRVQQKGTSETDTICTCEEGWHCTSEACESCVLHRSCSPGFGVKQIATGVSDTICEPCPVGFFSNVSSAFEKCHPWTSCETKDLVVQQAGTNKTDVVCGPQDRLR

[14] = molecular target: T4, CD-19; assay: flow cytometry on cells carrying the target, 2 ug/mL; parent antibody

IC50 [1]: 0.18 nM
B1: AB012 (anti-HGF (seq. 1) parent antibody) (antibody, human IgG1, kappa, V domains shown)
VH: QVQLVESGGGLVKPGGSLRLSCAASGFTFSDYYMSWIRQAPGKGLEWVSYISSSGSTIYYADSVKGRFTISRDNAKNSLYLQMNSLRAEDTAVYYCARDEYNSGWYVLFDYWGQGTLVTVSS
VL: DIQMTQSPSSVSASVGDRVTITCRASQGISSWLAWYQQKPGKAPNLLIYEASSLQSGVPSRFGGSGSGTDFTLTISSLQPEDFATYYCQQANGFPWTFGQGTKVEIKR
notes: also called AB012VH/AB012VL

EC50 [2]: 0.2 nM
B2: AB047 (anti-PLGF (seq. 1) parent antibody) (antibody, IgG1, V domains shown)
VH: QVQLQQSGAELVKPGASVKISCKASGYTFTDYYINWVKLAPGQGLEWIGWIYPGSGNTKYNEKFKGKATLTIDTSSSTAYMQLSSLTSEDTAVYFCVRDSPFFDYWGQGTLLTVSS
VL: DIVLTQSPDSLAVSLGERVTMNCKSSQSLLNSGMRKSFLAWYQQKPGQSPKLLIYWASTRESGVPDRFTGSGSGTDFTLTISSVQAEDVAVYYCKQSYHLFTFGSGTKLEIKR
notes: HC vector V1 (wild-type hIgG1 constant), LC vector V2 (kappa constant); also called AB047VH; AB047VL

IC50 [3]: 3.07 nM
B3: AB047 (antibody, human IgG1, kappa, V domains shown)
VH: QVQLQQSGAELVKPGASVKISCKASGYTFTDYYINWVKLAPGQGLEWIGWIYPGSGNTKYNEKFKGKATLTIDTSSSTAYMQLSSLTSEDTAVYFCVRDSPFFDYWGQGTLLTVSS
VL: DIVLTQSPDSLAVSLGERVTMNCKSSQSLLNSGMRKSFLAWYQQKPGQSPKLLIYWASTRESGVPDRFTGSGSGTDFTLTISSVQAEDVAVYYCKQSYHLFTFGSGTKLEIKR
notes: Parent anti-PlGF antibody; also called AB047VH

FACS Geometric Mean N-terminal [4]: 1100
B4: DVD002 (bispecific antibody, human IgG1, kappa)
heavy: not shown
light: DILLTQTPASLAVSLGQRATISCKASQSVDYDGDSYLNWYQQIPGQPPKLLIYDASNLVSGIPPRFSGSGSGTDFTLNIHPVEKVDAATYHCQQSTEDPWTFGGGTKLEIKRTVAAPQIVLSQSPAILSPSPGEKVTMTCRASSSVSYIHWFQQKPGSSPKPWIYATSNLASGVPVRFSGSGSGTSYSLTISRVEAEDAATYYCQQWTSNPPTFGGGTKLEIKRTVAAPSVFIFPPSDEQLKSGTASVVCLLNNFYPREAKVQWKVDNALQSGNSQESVTEQDSKDSTYSLSSTLTLSKADYEKHKVYACEVTHQGLSSPVTKSFNRGEC
notes: DVD-Ig; outer AB006 (CD-19), inner AB001 (CD-20); also called CD-19 and CD-20 DVD-Ig

IC50 [5]: 2.3 nM
Ref. Ab Inhibition of sFlt1 (IC50, nM) [6]: 0.34 nM
IC50 [7]: 2.47 nM and 2.69 nM and 2.53 nM and 2.74 nM
IC50 [8]: 0.37 nM and 0.4 nM
B5: AB015 (anti-DLL-4 (seq. 1) parent antibody) (antibody, human IgG1, kappa)
heavy: not shown
light: DIQMTQSPSSLSASVGDRVTITCRASQDVSTAVAWYQQKPGKAPKLLIYSASFLYSGVPSRFSGSGSGTDFTLTISSLQPEDFATTYYCQQSYTGTVTFGQGTKVEIKRTVAAPSVFIFPPSDEQLKSGTASVVCLLNNFYPREAKVQWKVDNALQSGNSQESVTEQDSKDSTYSLSSTLTLSKADYEKHKVYACEVTHQGLSSPVTKSFNRGEC
notes: also called AB015VH/AB015VL

EC50 [9]: 0.46 nM
B6: DVD050 (NRP1 (seq. 1) and VEGF (seq. 1) DVD-Ig) (bispecific antibody, IgG1)
VH: EVQLVESGGGLVQPGGSLRLSCAASGFSFSSEPISWVRQAPGKGLEWVSSITGKNGYTYYADSVKGRFTISADTSKNTAYLQMNSLRAEDTAVYYCARWGKKVYGMDVWGQGTLVTVSSASTKGPEVQLVESGGGLVQPGGSLRLSCAASGYTFTNYGMNWVRQAPGKGLEWVGWINTYTGEPTYAADFKRRFTFSLDTSKSTAYLQMNSLRAEDTAVYYCAKYPHYYGSSHWYFDVWGQGTLVTVSS
VL: DIQMTQSPSSLSASVGDRVTITCRASQSISSYLAWYQQKPGKAPKLLIYGASSRASGVPSRFSGSGSGTDFTLTISSLQPEDFATYYCQQYMSVPITFGQGTKVEIKRTVAAPDIQMTQSPSSLSASVGDRVTITCSASQDISNYLNWYQQKPGKAPKVLIYFTSSLHSGVPSRFSGSGSGTDFTLTISSLQPEDFATYYCQQYSTVPWTFGQGTKVEIKR
notes: HC vector V1 (wild-type hIgG1 constant), LC vector V2 (kappa constant); also called DVD050H; DVD050L

IC50 [10]: 21.3 nM
B7: DVD047 (VEGF (seq. 1) N-terminal / RON (seq. 1) C-terminal DVD-Ig) (bispecific antibody, human IgG1, kappa)
heavy: not shown
light: DIQMTQSPSSLSASVGDRVTITCSASQDISNYLNWYQQKPGKAPKVLIYFTSSLHSGVPSRFSGSGSGTDFTLTISSLQPEDFATYYCQQYSTVPWTFGQGTKVEIKRTVAAPDVVMTQSPLSLPVTPGEPASISCRSSQSLLHSNGFNYVDWYLQKPGQSPHLLIYFGSYRASGVPDRFSGSGSGTDFTLKISRVEAEDVGVYYCMQALQTPPWTFGQGTKVEIRRTVAAPSVFIFPPSDEQLKSGTASVVCLLNNFYPREAKVQWKVDNALQSGNSQESVTEQDSKDSTYSLSSTLTLSKADYEKHKVYACEVTHQGLSSPVTKSFNRGEC
notes: also called DVD047H/DVD047L

EC50 [11]: 0.58 nM
B8: AB016 (anti-NRP1 (seq. 1) parent antibody) (antibody, IgG1, V domains shown)
VH: EVQLVESGGGLVQPGGSLRLSCAASGFSFSSEPISWVRQAPGKGLEWVSSITGKNGYTYYADSVKGRFTISADTSKNTAYLQMNSLRAEDTAVYYCARWGKKVYGMDVWGQGTLVTVSS
VL: DIQMTQSPSSLSASVGDRVTITCRASQSISSYLAWYQQKPGKAPKLLIYGASSRASGVPSRFSGSGSGTDFTLTISSLQPEDFATYYCQQYMSVPITFGQGTKVEIKR
notes: HC vector V1 (wild-type hIgG1 constant), LC vector V2 (kappa constant); also called AB016VH; AB016VL

EC50 [12]: 0.5 nM
B9: DVD049 (VEGF (seq. 1) and NRP1 (seq. 1) DVD-Ig) (bispecific antibody, IgG1)
VH: EVQLVESGGGLVQPGGSLRLSCAASGYTFTNYGMNWVRQAPGKGLEWVGWINTYTGEPTYAADFKRRFTFSLDTSKSTAYLQMNSLRAEDTAVYYCAKYPHYYGSSHWYFDVWGQGTLVTVSSASTKGPEVQLVESGGGLVQPGGSLRLSCAASGFSFSSEPISWVRQAPGKGLEWVSSITGKNGYTYYADSVKGRFTISADTSKNTAYLQMNSLRAEDTAVYYCARWGKKVYGMDVWGQGTLVTVSS
VL: DIQMTQSPSSLSASVGDRVTITCSASQDISNYLNWYQQKPGKAPKVLIYFTSSLHSGVPSRFSGSGSGTDFTLTISSLQPEDFATYYCQQYSTVPWTFGQGTKVEIKRTVAAPDIQMTQSPSSLSASVGDRVTITCRASQSISSYLAWYQQKPGKAPKLLIYGASSRASGVPSRFSGSGSGTDFTLTISSLQPEDFATYYCQQYMSVPITFGQGTKVEIKR
notes: HC vector V1 (wild-type hIgG1 constant), LC vector V2 (kappa constant); also called DVD049H; DVD049L

binding result [13]: binds
B10: DVD009 DVD-Ig (bispecific antibody, human IgG1, kappa)
heavy: not shown
light: QIVLSQSPAILSPSPGEKVTMTCRASSSVSYIHWFQQKPGSSPKPWIYATSNLASGVPVRFSGSGSGTSYSLTISRVEAEDAATYYCQQWTSNPPTFGGGTKLEIKRTVAAPDIVMTQSPLSLTVTPGEPASISCRSSQSLLYSNGYNYLDWYLQKPGQSPQVLISLGSNRASGVPDRFSGSGSGTDFTLKISRVEAEDVGVYYCMQARQTPFTFGPGTKVDIRRTVAAPSVFIFPPSDEQLKSGTASVVCLLNNFYPREAKVQWKVDNALQSGNSQESVTEQDSKDSTYSLSSTLTLSKADYEKHKVYACEVTHQGLSSPVTKSFNRGEC
notes: outer AB001 (CD-20), inner AB009 (CD-40); HC/LC linkers short/short; also called DVD009H; DVD009L

FACS Geometric Mean [14]: 979
B11: AB006 (antibody, human IgG1, kappa, V domains shown)
VH: QVQLQQSGAELVRPGSSVKISCKASGYAFSSYWMNWVKQRPGQGLEWIGQIWPGDGDTNYNGKFKGKATLTADESSSTAYMQLSSLASEDSAVYFCARRETTTVGRYYYAMDYWGQGTSVTVSS
VL: DILLTQTPASLAVSLGQRATISCKASQSVDYDGDSYLNWYQQIPGQPPKLLIYDASNLVSGIPPRFSGSGSGTDFTLNIHPVEKVDAATYHCQQSTEDPWTFGGGTKLEIKR
notes: Parent antibody
